Experiment [1] concerns the target Polyvalent sialyl Le^a-HSA (Isosep AB). Kind of experiment: ELISA on coated sialyl-Lewis^a-HSA.
For experiment [2] the target is unchanged. Kind of experiment: SPR (Biacore X or 3000), sialyl Le^a-HSA coupled to CM5 chip; minor population; minor population (20%), two-population fit. (In general: SPR reads the build-up and loss of mass on a sensor chip optically.)
The target is the same in experiment [3]. Kind of experiment: ELISA on plates coated with sialyl-Lewis^a-HSA, OD 450nm. On the technique in general: ELISA stands for enzyme-linked immunosorbent assay.
Experiment [4] has the same target. Kind of experiment: SPR (Biacore X or 3000), sialyl Le^a-HSA coupled to CM5 chip; major population.
Experiment [5] shares this target. Kind of experiment: SPR (Biacore X or 3000), sialyl Le^a-HSA coupled to CM5 chip; major population; major population (80%), two-population fit.
For experiment [6] the target is unchanged. Kind of experiment: SPR (Biacore X or 3000), sialyl Le^a-HSA coupled to CM5 chip; minor population.
Experiment [7] shares this target. Kind of experiment: SPR, real-time sialyl Le^a-HSA binding, antigen on CM5 chip.

As a reminder, the EC50 is the midpoint of the concentration-response curve. Read a high EC50 as weaker potency. In general, koff refers to a measure of how fast the partners let go of each other. In general, kon refers to a measure of how fast the partners come together. For orientation: Kd means the concentration at which binding is half-saturated.

FG129 mAb (mouse FG129/29 IgG1 kappa) (antibody), sequence (heavy): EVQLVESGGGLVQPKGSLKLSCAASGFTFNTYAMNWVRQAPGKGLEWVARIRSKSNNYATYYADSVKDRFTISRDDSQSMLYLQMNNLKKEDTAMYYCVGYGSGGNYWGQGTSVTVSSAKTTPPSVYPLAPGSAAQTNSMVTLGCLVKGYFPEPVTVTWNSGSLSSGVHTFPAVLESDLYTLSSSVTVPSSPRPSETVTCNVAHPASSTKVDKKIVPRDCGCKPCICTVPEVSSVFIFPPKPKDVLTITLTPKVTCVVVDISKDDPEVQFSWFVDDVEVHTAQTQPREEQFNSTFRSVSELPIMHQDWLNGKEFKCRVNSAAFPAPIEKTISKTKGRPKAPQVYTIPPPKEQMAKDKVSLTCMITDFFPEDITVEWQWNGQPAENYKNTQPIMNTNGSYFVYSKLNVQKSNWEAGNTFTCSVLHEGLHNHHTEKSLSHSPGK
FG129 mAb (mouse FG129/29 IgG1 kappa) (antibody), sequence (light): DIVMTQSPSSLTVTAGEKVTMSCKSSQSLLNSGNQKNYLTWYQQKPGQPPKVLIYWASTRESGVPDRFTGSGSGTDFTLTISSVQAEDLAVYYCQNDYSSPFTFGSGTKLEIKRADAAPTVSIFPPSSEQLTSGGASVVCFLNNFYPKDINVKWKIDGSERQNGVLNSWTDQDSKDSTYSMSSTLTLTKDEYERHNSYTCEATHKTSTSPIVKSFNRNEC

Take “FG129 mAb (mouse FG129/29 IgG1 kappa) (antibody)”: the results for the half-maximal effective concentration (EC50) in experiment [1] and in experiment [3] were 100 pM and 287 pM, respectively. For the same substance, the values for the koff in experiment [2], in experiment [4] and in experiment [7] were 1.35e-08 s⁻¹, 0.00257 s⁻¹ and 0.00011 s⁻¹, respectively. For the same substance, the kon in experiment [4] came out at 19700 M⁻¹ s⁻¹; in experiment [6], 88500 M⁻¹ s⁻¹; in experiment [7] it was 620000 M⁻¹ s⁻¹. Also, the dissociation constant (Kd) was found to be 130000 pM in experiment [5], 0.14 pM in experiment [6] and 200 pM in experiment [7].

For “CA19.9 (anti-sialyl lewis a Mab) (antibody)”, the EC50 in experiment [3] came to 186 pM. That is a sub-nanomolar value.
